Test results as given in article PMC5610242, “Stapled peptide inhibitors of RAB25 target context-specific phenotypes in cancer” (Nature Communications, 2017).
Bridge positions count the residues as written; N and C are the ends. Square brackets hold non-standard residues; d marks the D form. Ends that are not written are not given here. Peptide text beside a SMILES is read from it. * marks the point of attachment. FITC = O=C1OC2(c3ccc(O)cc3Oc3cc(O)ccc32)c2ccc(NC(=S)*)cc21; Met(O) = CS(=O)CC[C@H](N)C(=O)O; S5 = C=CCCC[C@](C)(N)C(=O)O; Nle = CCCC[C@H](N)C(=O)O; PEG = not defined here; βAla = NCCC(=O)O

T1: RAB11a (activated Q70L mutant) (Homo sapiens, UniProt P62491, Q70L)
T1 construct: GST-RAB11a (1–173, Q70L mutant) in pGEX5x-1; made in house; host or cells: E. coli BL21
T1 sequence (P62491 1-173 Q70L): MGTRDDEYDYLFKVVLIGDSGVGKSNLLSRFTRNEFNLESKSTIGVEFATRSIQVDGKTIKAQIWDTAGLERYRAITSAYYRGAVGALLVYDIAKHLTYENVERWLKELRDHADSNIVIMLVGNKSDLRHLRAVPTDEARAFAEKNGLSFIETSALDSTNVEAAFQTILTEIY

T2: RAB25 (Homo sapiens, UniProt P57735)
T2 construct: GST-RAB25 (1–180) in pET41 Ek/LIC; made in house; host or cells: E. coli BL21
T2 sequence (P57735 1-180): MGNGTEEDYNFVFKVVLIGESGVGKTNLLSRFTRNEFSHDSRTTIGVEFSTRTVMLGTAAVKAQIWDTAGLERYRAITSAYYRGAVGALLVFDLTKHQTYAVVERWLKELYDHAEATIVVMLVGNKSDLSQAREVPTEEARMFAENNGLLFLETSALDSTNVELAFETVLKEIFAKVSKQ

T3: GST-RAB11a (1-173, Q70L mutant) (UniProt P62491 1-173, Q70L)
T3 construct: source: E. coli BL21, purified (glutathione sepharose, Superdex 75 gel filtration)
T3 sequence (looked up): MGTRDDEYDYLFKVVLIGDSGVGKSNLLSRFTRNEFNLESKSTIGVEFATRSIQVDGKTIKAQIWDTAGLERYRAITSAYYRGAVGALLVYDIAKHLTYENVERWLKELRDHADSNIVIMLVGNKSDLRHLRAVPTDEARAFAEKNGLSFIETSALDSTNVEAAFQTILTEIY

T4: GST-RAB25 (1-180) (UniProt P57735 1-180)
T4 construct: RAB25, residues 1-180, in pET41 Ek/LIC; source: E. coli BL21, purified (glutathione sepharose, Superdex 75 gel filtration)
T4 sequence (looked up): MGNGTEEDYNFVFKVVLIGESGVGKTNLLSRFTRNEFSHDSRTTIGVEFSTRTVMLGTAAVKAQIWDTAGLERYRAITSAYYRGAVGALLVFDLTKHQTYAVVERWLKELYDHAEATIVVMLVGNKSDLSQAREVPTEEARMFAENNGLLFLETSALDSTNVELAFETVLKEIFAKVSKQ

T5: His6-RAB25 (1–180) (UniProt P57735 1-180)
T5 chain: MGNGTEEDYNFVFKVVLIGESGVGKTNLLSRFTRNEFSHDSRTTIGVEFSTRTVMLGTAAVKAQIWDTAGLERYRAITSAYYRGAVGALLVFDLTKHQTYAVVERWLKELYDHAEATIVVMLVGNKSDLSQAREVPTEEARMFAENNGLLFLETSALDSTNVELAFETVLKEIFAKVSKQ


Experiments:
[1] = molecular target: T1, RAB11a (activated Q70L mutant); experiment: Fluorescence polarization binding of FITC-labeled RFP peptides to RAB11a; settings: FP
Protocol: (§1) Fluorescence polarization assays were performed with for GST-RAB25 and GST-RAB11a to quantify binding to FITC-labeled unmodified and stapled RFP peptides. Initial fluorescence polarization measurements for RFP1−RFP13 were made by incubating FITC-RFP peptides (25 nM) with threefold dilutions of a given protein in FP buffer, consisting of 20 mM Tris pH 8.0, 150 mM NaCl, 5 mM MgCl2, 2 mM DTT, 10 μM GTP and 2% glycerol. Dilutions and incubations were performed in 96-well, black flat-bottom plates (Nunc) to a total volume of 100 μL, and equilibrated at room temperature for 30 min. Polarization was measured on a Spetramax-M5 multi-label plate reader (Molecular Devices) with λ ex = 485 nm and λ em = 525 nm. Polarization values were determined using the equation: P = (V − H)/(V + H), where P denotes polarization, V denotes vertical emission intensity and H represents horizontal emission intensity. Fraction bound was calculated using the equilibrium maximum polarization value obtained for a given protein among ligands, to which background-subtracted fluorescence polarization values were internally normalized. Fluorescence polarization measurements for FITC-RFP14, 24, 26, 31, and 32 were performed as detailed above with the exception that 10 nM FITC-ligand was used.

RAB25 = molecular target: T2, RAB25; experiment: Fluorescence polarization binding of FITC-labeled RFP peptides to RAB25; settings: FP, 30 min room temperature
Protocol: as §1

GST-RAB25 (1-180) [2] = molecular target: GST-RAB25 (1-180) (UniProt P57735); experiment: fluorescence polarisation; FITC-peptide 25 nM with threefold dilutions of GST-RAB protein; 20 mM Tris pH 8.0, 150 mM NaCl, 5 mM MgCl2, 2 mM DTT, 10 µM GTP, 2% glycerol; room temperature, 30 min; apparent Kd from a sigmoidal (4-parameter) fit, 95% confidence interval
[3] = molecular target: T3, GST-RAB11a (1-173, Q70L mutant); experiment: as above; settings: both partners purified
GST-RAB25 (1-180) [4] = molecular target: T4, GST-RAB25 (1-180); experiment: as above; settings: both partners purified
[5] = molecular target: T3, GST-RAB11a (1-173, Q70L mutant); experiment: fluorescence polarisation; as for RFP1-13 but FITC-ligand 10 nM, with threefold dilutions of GST-RAB protein; 20 mM Tris pH 8.0, 150 mM NaCl, 5 mM MgCl2, 2 mM DTT, 10 µM GTP, 2% glycerol; room temperature, 30 min; apparent Kd from a sigmoidal (4-parameter) fit, 95% confidence interval; settings: both partners purified
GST-RAB25 (1-180) [6] = molecular target: T4, GST-RAB25 (1-180); experiment: as above; settings: both partners purified
His6-RAB25 (1–180) = molecular target: T5, His6-RAB25 (1–180); experiment: competition with bio-RFP14 (ALPHAscreen)

| Kd [3] | Kd (GST-RAB25 (1-180) [4]) | Molecule | further results |
| --- | --- | --- | --- |
| – | – | RFP5: peptide with oxidation of a methionine involved in binding, a separable byproduct of chemical synthesis ({FITC-PEG}-KQEEINFRLQDYIDRIIVAI[Met(O)]ETNPSILEVK; reading uncertain) | loss of binding affinity for RAB11a on methionine oxidation ([1]; relative to non-oxidised peptide): ~ fivefold |
| – | – | CC[C@H](C)[C@H](NC(=O)[C@H](CCCNC(=N)N)NC(=O)[C@H](C)NC(=O)[C@H](C)NC(=O)[C@]1(C)CCCC=CCCC[C@](C)(NC(=O)[C@H](CC(N)=O)NC(=O)[C@H](CCC(N)=O)NC(=O)[C@H](CC(C)C)NC(=O)[C@H](CCCNC(=N)N)NC(=O)[C@H](Cc2ccccc2)NC(=O)[C@H](CC(N)=O)NC(=O)[C@@H](NC(=O)[C@H](CCCNC(=N)N)NC(=O)CCNC(=O)[C@@H](N)Cc2c[nH]c3ccccc23)[C@@H](C)CC)C(=O)N[C@@H]([C@@H](C)CC)C(=O)N[C@@H](CC(=O)O)C(=O)N[C@@H](CCCNC(=N)N)C(=O)N1)C(=O)N[C@@H](C)C(=O)N[C@@H](CCC(=O)O)C(=O)N[C@H](C(=O)N[C@@H](CC(N)=O)C(=O)N1CCC[C@H]1C(=O)N[C@@H](CO)C(=O)N[C@H](C(=O)N[C@@H](CC(C)C)C(=O)N[C@@H](CCCNC(=N)N)C(=O)N[C@H](C(=O)N[C@@H](CCCCN)C(N)=O)C(C)C)[C@@H](C)CC)[C@@H](C)O [RFP32] (H-W[βAla]RINFRLQN[S5]IDR[S5]AARIAETNPSILRVK-NH2; staple 11-15) | Kd ([1]; 10 nM FITC-ligand, GST-RAB11a (1–173, Q70L), FP buffer pH 8.0 with 10 μM GTP, 30 min room temperature, mean with 95% C.I., triplicate, read-out: apparent Kd (95% C.I.) RAB11a): > 5000 nM; Kd (RAB25; 10 nM FITC-ligand, GST-RAB25, FP buffer pH 8.0 with 10 μM GTP, mean with 95% C.I., triplicate, read-out: apparent Kd (95% C.I.) RAB25): > 5000 nM |
| – | – | FIP2: unmodified Class-I peptide encompassing the RAB-binding domain of FIP2, FITC-labeled ({FITC-PEG}-ERDTHIRELEDYIDNLLVRVMEETPSILRVPR; reading uncertain) | binding to RAB11a (in words) ([1]; 25 nM FITC-RFP peptide, 30 min room temperature): essentially no binding; binding to RAB25 (in words) (RAB25; 25 nM FITC-RFP peptide): essentially no binding |
| 2300 nM | – | {FITC-PEG}-KQEEINFRLQDYIDRIIVAIMETNPSILEVK (reading uncertain, also called fRFP3; FIP3 peptide; source: synthetic peptide (Fmoc solid phase, HPLC purified)) [FITC-RFP3 (unmodified FIP3 RAB-binding domain peptide)] | Kd (GST-RAB25 (1-180) [2]): > 5000 nM |
| 40 nM | 170 nM | {FITC-PEG-βAla}-RQVRELEDYIDRLLV[S5]VME[S5]TPNILRIPR (staple 16-20; reading uncertain) [FITC-RFP8 (FIP1-derived stapled peptide, 'IME' staple)] | – |
| 930 nM | 2300 nM | {FITC-PEG}-EQEEINFRLRQYMDKIILAILDHNPSILEIKH (reading uncertain, also called fRFP4; FIP4 peptide; source: synthetic peptide (Fmoc solid phase, HPLC purified)) [FITC-RFP4 (unmodified FIP4 RAB-binding domain peptide)] | – |
| > 5000 nM | > 5000 nM | {FITC-PEG-βAla}-RQVRELE[S5]YID[S5]LLVRVMEETPNILRIPR (staple 8-12; reading uncertain) [FITC-RFP6 (FIP1-derived stapled peptide, 'YID' staple)] | – |
| > 5000 nM | – | {FITC-PEG}-KQEEINFRLQDYIDRIIVAI[Met(O)]ETNPSILEVK (reading uncertain, also called fRFP5; source: synthetic peptide (separable byproduct of chemical synthesis, HPLC purified)) [FITC-RFP5 (FIP3 RAB-binding domain peptide with oxidised methionine)] | Kd (GST-RAB25 (1-180) [2]): > 5000 nM |
| – | – | {FITC-PEG-βAla}-RINFRLQN[S5]IDR[S5]IVRI[Nle]ETNPSILRVK (staple 9-13; reading uncertain) [FITC-RFP26 (optimized stapled peptide, 'IDR' staple)] | Kd [5]: 90 nM; Kd (GST-RAB25 (1-180) [6]): 20 nM |
| – | – | KQEEINFRLQDYIDRIIVAIMETNPSILEVK [FIP3 peptide (residues 726–756)] | IC50 (His6-RAB25 (1–180)): > 10000 nM |
| 20 nM | 30 nM | {FITC-PEG-βAla}-RINFRLQDYIDRIIV[S5]IME[S5]NPSILEVK (staple 16-20; reading uncertain) [FITC-RFP12 (FIP3-derived stapled peptide, 'IME' staple)] | – |
| > 5000 nM | > 5000 nM | {FITC-PEG-βAla}-RINFRLQ[S5]YID[S5]IIVAIMETNPSILEVK (staple 8-12; reading uncertain) [FITC-RFP10 (FIP3-derived stapled peptide, 'YID' staple)] | – |
| – | – | {FITC-PEG-βAla}-RQVRELENYIDRLLV[S5]V[Nle]E[S5]TPNILRIPR (staple 16-20; reading uncertain) [FITC-RFP14 (optimized stapled peptide, 'IME' staple)] | Kd [5]: 320 nM |
| > 5000 nM | > 5000 nM | {FITC-PEG}-KKEFQVRELEDYIDNLLVRVMEETPNILRIPA (reading uncertain, also called fRFP1; FIP1 peptide; source: synthetic peptide (Fmoc solid phase, HPLC purified)) [FITC-RFP1 (unmodified FIP1 RAB-binding domain peptide)] | – |
| 80 nM | 40 nM | {FITC-PEG-βAla}-RINFRLQD[S5]IDR[S5]IVAIMETNPSILEVK (staple 9-13; reading uncertain) [FITC-RFP13 (FIP3-derived stapled peptide, 'IDR' staple)] | – |
| – | – | {FITC-PEG-βAla}-RINFRLQN[S5]IDR[S5]IVRIFETNPSILRVK (staple 9-13; reading uncertain) [FITC-RFP24 (optimized stapled peptide, 'IDR' staple)] | Kd [5]: 560 nM; Kd (GST-RAB25 (1-180) [6]): 160 nM |
| 110 nM | 510 nM | {FITC-PEG-βAla}-RQVRELEDYID[S5]LLV[S5]VMEETPNILRIPR (staple 12-16; reading uncertain) [FITC-RFP7 (FIP1-derived stapled peptide, 'IIV' staple)] | – |
| > 5000 nM | > 5000 nM | {FITC-PEG}-ERDTHIRELEDYIDNLLVRVMEETPSILRVPR (reading uncertain, limits worked out from the printed L485, V486 and M489; also called fRFP2; FIP2 peptide; source: synthetic peptide (Fmoc solid phase, HPLC purified)) [FITC-RFP2 (unmodified FIP2 RAB-binding domain peptide)] | – |
| 2400 nM | 1200 nM | {FITC-PEG-βAla}-RQVRELED[S5]IDR[S5]LVRVMEETPNILRIPR (staple 9-13; reading uncertain) [FITC-RFP9 (FIP1-derived stapled peptide, 'IDR' staple)] | – |
| 7 nM | 50 nM | {FITC-PEG-βAla}-RINFRLQDYID[S5]IIV[S5]IMETNPSILEVK (staple 12-16; reading uncertain) [FITC-RFP11 (FIP3-derived stapled peptide, 'IIV' staple)] | – |
